Data: publication PMC3976097

Legend:
[1] = target: Recombinant human IFN-α/β R2-Fc chimera (human) (UniProt P48551)
[2] = target: Recombinant human IFN-α/β R2-Fc chimera (human) (UniProt P48551); test: SPR; BIAcore T-100; human IFNR2-Fc captured on a CM5 chip by an immobilized anti-human IgG Fc antibody; Nova or IFN-α2b in the solution phase; binding measured under equilibrium conditions

Sequence of UniProt P48551 (P48551 27-243, change not shown): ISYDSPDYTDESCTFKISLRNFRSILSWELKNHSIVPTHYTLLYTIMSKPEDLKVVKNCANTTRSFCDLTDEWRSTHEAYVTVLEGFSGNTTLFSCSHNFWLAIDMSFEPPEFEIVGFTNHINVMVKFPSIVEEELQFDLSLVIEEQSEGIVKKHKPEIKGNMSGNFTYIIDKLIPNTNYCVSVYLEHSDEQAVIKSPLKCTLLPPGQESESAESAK

Q: Novaferon (ligand) was tested. Which anti-tumor activity against Daudi cell lines (MTT anti-proliferative assay) [1] did it give?
A: 2.74e+10 U/mg

Q: What about the anti-virus activity, WISH/VSV system (cytopathic effect reduction assay) [1] of the same substance?
A: 1.34e+09

Q: And the Kd [2]?
A: 0.0123 nM
